Drawing on patent US20140328853A1, this text covers Maximal inhibition of ADM bioactivity (ADM-Bioassay) (%) and IC50 (read off the curve) for two substances.

Assay [1] has as its target ADM (human or mouse not told for the control row of Table 3). Briefly: cell-based or functional assay.
In assay [2] the target is human recombinant adrenomedullin receptor (CRLR+RAMP3) (human).
Assay [3] has the same target. The source holds these as a separate data set.

Where two headings read alike, the source gives them in different places.

Non specific mouse IgG (antibody): the Maximal inhibition of ADM bioactivity (ADM-Bioassay) (%) in assay [1] was 0%.
For “hADM 22-52 (on the sheet: antagonist) (peptide)”, the IC50 (read off the curve) amounted to 0.2 µM in assay [2] and 3 µM in assay [3].
